Results published in article PMC3985756 (Biochemistry, 2014).

Target: the molecule itself
Assay: crystal structure

B1: N-terminal six-His-tagged FosB from Staphylococcus aureus with a bacillithiol-Cys9 disulfide bond (enzyme)
chain: not shown
modifications: Cys9 in a disulfide bond with bacillithiol (BS-Cys9)
  stoichiometry N: 2
